Source: PMC3239214 (Nucleic Acids Research, 2011)

Target: the molecule itself
Assay: SEC

B1: GyrA_ΔCTD (domain or fragment, Bacillus subtilis, UniProt P05653 1-489, looked up)
chain: MSEQNTPQVREINISQEMRTSFLDYAMSVIVSRALPDVRDGLKPVHRRILYAMNDLGMTSDKPYKKSARIVGEVIGKYHPHGDSAVYESMVRMAQDFNYRYMLVDGHGNFGSVDGDSAAAMRYTEARMSKISMEILRDITKDTIDYQDNYDGSEREPVVMPSRFPNLLVNGAAGIAVGMATNIPPHQLGEIIDGVLAVSENPDITIPELMEVIPGPDFPTAGQILGRSGIRKAYESGRGSITIRAKAEIEQTSSGKERIIVTELPYQVNKAKLIEKIADLVRDKKIEGITDLRDESDRTGMRIVIEIRRDANANVILNNLYKQTALQTSFGINLLALVDGQPKVLTLKQCLEHYLDHQKVVIRRRTAYELRKAEARAHILEGLRVALDHLDAVISLIRNSQTAEIARTGLIEQFSLTEKQAQAILDMRLQRLTGLEREKIEEEYQSLVKLIAELKDILANEYKVLEIIREELTEIKERFNDERRTEIVT
With B1 the “stoichiometry N” value was 2.
